Values of other authors as cited in paper PMC6023760.

Biological target: Thrombin exosite 2 (Homo sapiens) (UniProt P00734)

- Kd: 0.2 µM
Substance: Fibrin γ′-chain γ′ site (from UniProt P02679)
